The record followed here is PMC2651776 (Nucleic Acids Research, 2009).

In series [1] the target is T1, MepR (Staphylococcus aureus, UniProt Q5Y812).
T1 sequence (Q5Y812 1-139): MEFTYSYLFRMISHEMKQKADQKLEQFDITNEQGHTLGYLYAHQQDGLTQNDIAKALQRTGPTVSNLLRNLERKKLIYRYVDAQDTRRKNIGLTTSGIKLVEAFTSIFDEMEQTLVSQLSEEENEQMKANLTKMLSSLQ
The class given is binding.

The series “SEC” deals with the molecule itself. Put plainly: SEC. For orientation: SEC sorts molecules by how far they enter the pores of the column.
Series [2] concerns the target MepR (Staphylococcus aureus, UniProt A0A0H3JPT9 1-139). Put plainly: fluorescence polarization. (In general: In fluorescence polarisation assays a small probe gives low polarisation when free and higher when bound to something large.)

With `CC[n+]1c(-c2ccccc2)c2cc(N)ccc2c2ccc(N)cc21` [ethidium], on MepR [1], the Kd – broadly, the free concentration of one partner at which half of the binding sites on the other are occupied at equilibrium, for simple one-to-one binding – is 2600 nM.
On the same count and under the same terms, the result for `CC/N=c1\cc2oc3cc(NCC)c(C)cc3c(-c3ccccc3C(=O)OCC)c-2cc1C` [rhodamine 6G] reads 62600 nM; that for `N=C(N)c1ccc(-c2cc3ccc(C(=N)N)cc3[nH]2)cc1` [DAPI, 4′,6-diamidino-2-phenylindole], 4500 nM.

B1: MepR (natural protein, Staphylococcus aureus)
chain: MEFTYSYLFRMISHEMKQKADQKLEQFDITNEQGHTLGYLYAHQQDGLTQNDIAKALQRTGPTVSNLLRNLERKKLIYRYVDAQDTRRKNIGLTTSGIKLVEAFTSIFDEMEQTLVSQLSEEENEQMKANLTKMLSSLQ
Take B1: in the series “SEC”, the stoichiometry N (as a rule, the number of molecules, sites or subunits per partner or assembly) came to 2.

B2: mepA 22 bp (3'-truncated) (dsDNA)
DNA 1: TTATAGTTAGATATCTAATTGT
DNA 2: ACAATTAGATATCTAACTATAA
B2: in the series with MepR [2], binding was characterised by a dissociation constant (Kd) of 46.4 nM.

B3: mepA 26 bp (3'-truncated) (dsDNA)
DNA 1: TTATAGTTAGATATCTAATTGTTAGT
DNA 2: ACTAACAATTAGATATCTAACTATAA
Molecule B3 showed a Kd with MepR [2] of 15.3 nM.

B4: mepR 26 bp site (dsDNA)
DNA 1: TATTTAGTTAGACATCTAACGAATGG
DNA 2: CCATTCGTTAGATGTCTAACTAAATA
The molecule B4 registered a Kd in the series with MepR [2] of 24.3 nM.

B5: mepA 44 bp full site (dsDNA)
DNA 1: TTATAGTTAGATATCTAATTGTTAGTAAGCTAATTATTGGAAAA
DNA 2: TTTTCCAATAATTAGCTTACTAACAATTAGATATCTAACTATAA
Regarding B5, the Kd in the series with MepR [2] was 6.3 nM.
